# From patent US20250388694A1 (BOOSTIMMUNE, published 2025)
# T1: Human TCTP (translationally controlled tumor protein) (human, UniProt P13693 1-172)
# T1 construct: also called HRF; Tpt1
# T1 sequence: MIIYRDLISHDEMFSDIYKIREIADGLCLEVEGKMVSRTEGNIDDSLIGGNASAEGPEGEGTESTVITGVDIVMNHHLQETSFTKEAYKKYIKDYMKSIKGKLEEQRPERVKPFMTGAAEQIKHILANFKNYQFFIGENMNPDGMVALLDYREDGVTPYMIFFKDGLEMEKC
# T2: mouse TCTP (mouse, UniProt P63028 1-172)
# T2 sequence (looked up): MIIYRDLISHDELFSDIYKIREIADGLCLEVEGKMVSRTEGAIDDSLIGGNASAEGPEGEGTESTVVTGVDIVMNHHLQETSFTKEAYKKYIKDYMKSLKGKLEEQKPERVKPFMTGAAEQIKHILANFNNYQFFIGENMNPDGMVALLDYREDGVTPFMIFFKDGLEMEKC
# B1: Ab9 (antibody, V domains shown)
# VH: QVQLQQSGPGLVKPSQTLSLTCAISGDSVSSNSAAWNWIRQSPSRGLEWLGRTYYRSKWYNDYAVSVKSRITINPDTSKNQFSLQLNSVTPEDTAVYYCAREGITVGRGVMLYFDLWGRGTLVTVSS
# VL: DVLMTQSPLSLPVTLGQPASISCRSSQSLVYSDGNTHLKWFQQRPGQSPRRLIYKVSKWDSGVPDRVSGSGSGTDFTLKISRVEAEDVGVYYCMQGTHWPPTFGQGTKVEIK
# notes: From Beacon screening; also called antibody Ab9
# B2: Ab18 (antibody, V domains shown)
# VH: QVQLQQSGPGLVKPSQTLSLTCAISGDSVSSNSAAWNWIRQSPSRGLEWLGRTYYRSKWYNDYAVSVKSRITINPDTSKNQFSLQLNSVTPEDTAVYYCARGGAAVFDYWGQGTLVTVSS
# VL: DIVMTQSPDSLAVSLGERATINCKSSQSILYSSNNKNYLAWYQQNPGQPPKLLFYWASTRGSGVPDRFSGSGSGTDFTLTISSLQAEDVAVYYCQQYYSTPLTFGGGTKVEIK
# notes: also called antibody Ab18
# B3: Ab13 (antibody, V domains shown)
# VH: QVQLQQSGPGLVKPSQTLSLTCAISGDSVSSNSAAWNWIRQSPSRGLEWLGRTYYRSKWYNDYAVSVKSRITINPDTSKNQFSLQLNSVTPEDTAVYYCARGGAAVFDYWGQGTLVTVSS
# VL: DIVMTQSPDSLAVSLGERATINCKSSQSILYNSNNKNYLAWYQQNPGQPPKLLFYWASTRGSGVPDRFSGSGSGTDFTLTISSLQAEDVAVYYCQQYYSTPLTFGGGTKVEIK
# notes: also called antibody Ab13
# B4: Ab17 (antibody, V domains shown)
# VH: QVQLQQSGPGLVKPSQTLSLTCAISGDSVSSNSAAWNWIRQSPSRGLEWLGRTYYKSKWYNDYAVSVKSRMTINPDTSKNQFSLQLNSVTPEDTAVYYCARGGSAVFDYWGQGTLVTVSS
# VL: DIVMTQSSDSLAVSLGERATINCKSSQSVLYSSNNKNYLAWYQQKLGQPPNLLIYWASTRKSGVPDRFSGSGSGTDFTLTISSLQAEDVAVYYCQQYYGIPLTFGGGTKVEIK
# notes: also called antibody Ab17
# B5: Ab14 (antibody, V domains shown)
# VH: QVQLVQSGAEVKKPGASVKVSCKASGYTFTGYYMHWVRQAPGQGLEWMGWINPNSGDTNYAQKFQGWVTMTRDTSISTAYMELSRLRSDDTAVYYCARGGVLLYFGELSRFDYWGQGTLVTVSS
# VL: QSALTQPPSASGSPGQSVAISCTGTSSDVGGYNYVSWYQQHPGKAPQLLIYEVTKRPSGVPDRFSGSKSGNTASLTVSGLQAEDEADYYCASYAGDNNLVFGGGTKLTVL
# notes: also called antibody Ab14
# B6: Ab15 (antibody, V domains shown)
# VH: QVQLVQSGAEVKKPGASVKLSCKAAGYTFTVNAMHWVRQAPGQGLEWMGWINAGTGKTKYSQKFQGRLTITRDTSASTAYMHLSGLRSEDTAVYYCARGRAVAFDPWGQGTLVTVSS
# VL: QSALTQPPSASGSPGQSVTISCTGTSSDVGGYDYVSWYQQHPDKAPKLMIYEVNKRPSGVPDRFSGSKSGNTASLTVSGLQAEDEADYYCNSYAGNNNLVFGGGTKLTVL
# notes: also called antibody Ab15
# B7: Ab19 (antibody, V domains shown)
# VH: QVQLQQSGPGLVKPSQTLSLTCAISGDSVSSSSAAWNWIRQSPSRGLEWLGRTYYRSKWYNDYAESVKSRITINPDTSKNQFSLQLNSVTPEDTAVYYCARRLTIVRGVMRGGMDVWGQGTTVTVSS
# VL: DIVMTQSPDSLAVSLDERATINCKSSQNLLYSANNKDYLAWYQQKPGQPPKLLIYWASTRYSGIPDRFSGSGSGTDFTLTISSLQAEDVAVYYCQQYYSTPWTFGQGTKVEIK
# notes: also called antibody Ab19
# B8: Ab10-1 (antibody, V domains shown)
# VH: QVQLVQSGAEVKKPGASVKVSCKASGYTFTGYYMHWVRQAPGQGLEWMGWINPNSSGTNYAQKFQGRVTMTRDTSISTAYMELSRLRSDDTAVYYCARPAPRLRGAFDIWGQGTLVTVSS
# VL: QSVVTQPPSVSAAPGQKVTISCSGSSSNIGNKKVSWYQQLPVTAPKLLIYDDNKRPSGIPDRFSGSKSGTSATLGITGLQTGDEADYYCATWDSSLRAVVFGGGTKLTVL
# notes: Single-residue CDR mutant of Ab10; also called antibody Ab10-1; mutant of Ab10
# B9: Ab10-10 (antibody, V domains shown)
# VH: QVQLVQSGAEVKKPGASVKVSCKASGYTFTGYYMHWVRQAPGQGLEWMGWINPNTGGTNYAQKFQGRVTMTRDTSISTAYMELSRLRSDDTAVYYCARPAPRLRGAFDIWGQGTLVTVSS
# VL: QSVVTQPPSVSAAPGQKVTISCSGSSSNIGNKKVSWYQQLPVTAPKLLIYDDNKRPSGIPDRFSGSKSGTSATLGITGLQTGDEADYYCATWDSSLRAVVFGGGTKLTVL
# notes: Mutant of Ab10 made to prevent post-translational modification; also called antibody Ab10-10; mutant of Ab10
# B10: Ab10-6 (antibody, V domains shown)
# VH: not shown
# VL: QSVVTQPPSVSAAPGQKVTISCSGSSSNIGTKKVSWYQQLPVTAPKLLIYDDNKRPSGIPDRFSGSKSGTSATLGITGLQTGDEADYYCATWDSSLRAVVFGGGTKLTVL
# notes: Single-residue CDR mutant of Ab10; also called antibody Ab10-6; mutant of Ab10
# B11: Ab10-9 (antibody, V domains shown)
# VH: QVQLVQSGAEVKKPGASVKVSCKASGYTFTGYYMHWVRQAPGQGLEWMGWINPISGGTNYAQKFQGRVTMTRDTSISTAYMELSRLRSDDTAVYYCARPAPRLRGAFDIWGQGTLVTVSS
# VL: QSVVTQPPSVSAAPGQKVTISCSGSSSNIGNKKVSWYQQLPVTAPKLLIYDDNKRPSGIPDRFSGSKSGTSATLGITGLQTGDEADYYCATWDSSLRAVVFGGGTKLTVL
# notes: Mutant of Ab10 made to prevent post-translational modification; also called antibody Ab10-9; mutant of Ab10
# B12: Ab10-7 (antibody, V domains shown)
# VH: not shown
# VL: QSVVTQPPSVSAAPGQKVTISCSGSSSNIGNFKVSWYQQLPVTAPKLLIYDDNKRPSGIPDRFSGSKSGTSATLGITGLQTGDEADYYCATWDSSLRAVVFGGGTKLTVL
# notes: Single-residue CDR mutant of Ab10; also called antibody Ab10-7; mutant of Ab10
# B13: Ab10-4 (antibody, V domains shown)
# VH: not shown
# VL: QSVVTQPPSVSAAPGQKVTISCSGSSSNIGNKKVSWYQQLPVTAPKLLIYDDNKRPSGIPDRFSGSKSGTSATLGITGLQTGDEADYYCATWDSSLRAVVFGGGTKLTVL
# notes: Single-residue CDR mutant of Ab10; also called antibody Ab10-4; mutant of Ab10
# B14: Ab10-5 (antibody, V domains shown)
# VH: not shown
# VL: QSVVTQPPSVSAAPGQKVTISCSGSSSNIGNKKVSWYQQLPVTAPKLLIYDDNKRPSGIPDRFSGSKSGTSATLGITGLQTGDEADYYCATWDSSLRAVVFGGGTKLTVL
# notes: Single-residue CDR mutant of Ab10; also called antibody Ab10-5; mutant of Ab10
# B15: Ab10-2 (antibody, V domains shown)
# VH: not shown
# VL: QSVVTQPPSVSAAPGQKVTISCSGSSSNIGNKKVSWYQQLPVTAPKLLIYDDNKRPSGIPDRFSGSKSGTSATLGITGLQTGDEADYYCATWDSSLRAVVFGGGTKLTVL
# notes: Single-residue CDR mutant of Ab10; also called antibody Ab10-2; mutant of Ab10
# B16: Ab10-8 (antibody, V domains shown)
# VH: not shown
# VL: QSVVTQPPSVSAAPGQKVTISCSGSSSNIGNKKVSWYQQLPVTAPKLLIYDDNKRPSGIPDRFSGSKSGTSATLGITGLQTGDEADYYCVTWDSSLRAVVFGGGTKLTVL
# notes: Single-residue CDR mutant of Ab10; also called antibody Ab10-8; mutant of Ab10
# B17: Ab10-3 (antibody, V domains shown)
# VH: not shown
# VL: QSVVTQPPSVSAAPGQKVTISCSGSSSNIGNKKVSWYQQLPVTAPKLLIYDDNKRPSGIPDRFSGSKSGTSATLGITGLQTGDEADYYCATWDSSLRAVVFGGGTKLTVL
# notes: Single-residue CDR mutant of Ab10; also called antibody Ab10-3; mutant of Ab10
# B18: Ab4 (antibody, V domains shown)
# VH: QVQLVQSGAEVKKPGASVKVSCKASGYTFTSNAMHWVRQAPGQRLEWMGWINAGNGNTKYSQKFQGRVTITRDTSASTAYMELSSLRSEDTAVYYCARGYYDILTGYYTTDAFDIWGQGTMVTVSS
# VL: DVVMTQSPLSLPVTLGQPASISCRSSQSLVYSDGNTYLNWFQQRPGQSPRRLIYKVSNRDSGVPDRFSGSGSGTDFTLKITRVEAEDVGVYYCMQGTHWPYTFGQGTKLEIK
# notes: From Beacon screening; also called antibody Ab4
# B19: Ab5 (antibody, V domains shown)
# VH: QVQLVQSGAEVKKPGASVKVSCKASGYIFISYAMHWVRQAPGQRLEWMGWINAGNGYTEYSQKFQGRVTITRDTSALTAYMELRSLRSEDTAVYYCARRGYFDWWAFDYWGQGTLVTVSS
# VL: EIVLTQSPDFQSVTPKEKVTITCRASQSIGSSLHWYQQKPDQSPKLLIKYASQSFSGVPSRFSGSGSGTDFTLTINSLEAEDAATYYCHQSSSLPQTFGQGTKVEIK
# notes: From Beacon screening; also called antibody Ab5
# B20: Ab6 (antibody, V domains shown)
# VH: QVQLQESGPGLVKPSGTLSLTCAVSGGSISSSNWWSWVRQPPGKGLEWIGEIDHSGTTTYNPSLKSRVTMSVDQSKNQFSLKLSSVTAADTAVYYCARDGSGSYEGYWGQGTLVTVSS
# VL: DIQMTQSPSSLSASVGDRVTITCRASQAISNHLAWFQQKPGKAPKSLIYAASSLQSGVPSKFSGSGSGTDFTLTISSLQPEDFATYYCQQYHSYPITFGQGTRLEIK
# notes: From Beacon screening; also called antibody Ab6
# B21: Ab7 (antibody, V domains shown)
# VH: QVQLQESGPGLVKPSETLSLTCAVSGGSISSSNWWSWVRQPPGKGLEWIGEIYHGVTTYNPSLKSRVTISVDNSKNQFSLKLSSVTAADTAVYYCARDGSGSYEGYWGQGTLVTVSS
# VL: DIQMTQSPSSLSASVGDRVTITCRASQDISNYLAWFQQKPGKAPKSLIYAASSLQSGVPSKFSGSGSGTDFTLTISSLQPEDFATYYCQQYHYYPITFGQGTRLEIK
# notes: From Beacon screening; also called antibody Ab7
# What was measured:
# [1] = target: T1, Human TCTP (translationally controlled …); assay: ELISA, human TCTP coated at 1 µg/ml, antibody titrated, OD 450 nm
# Description: ELISA was carried out to quantitatively analyze the binding capacity of selected antibodies to antigens. To this end, human TCTP was attached to an ELISA plate at a concentration of 1 μg/ml and then treated with antibodies of various concentrations to check the relative binding capacity. As a result of the measurement, all of antibodies Ab1, Ab2, Ab3, Ab4, Ab5, Ab6, Ab7, Ab8, Ab9, Ab12, Ab13, Ab14, Ab15, Ab17, Ab18, Ab19, Ab20, Ab21, and Ab22 were confirmed to bind well to human TCTP (FIGS. 1a and 1b).
# [2] = target: T1, Human TCTP (translationally controlled …); assay: SPR, Biacore 8K, human TCTP immobilised on CM5 chip, antibody as analyte, 1:1 model
# Description: The antigen binding capacity of antibodies selected in Example 1 was analyzed using a SPR technique. The device used was Biacore 8K (Ge Healthcare). Human TCTP was immobilized on a chip, and antibodies were shed at 6 or 7 different concentrations. A CM5 chip (GE Healthcare, Cat. 29-1275-56), a regeneration buffer (10 mM glycine-HCl (GE Healthcare)), and a driving buffer HBS-EP+, and the like were used. For kinetic analysis, the binding time was set to 100 or 120 seconds, the flow rate was set to 30 or 50 μl/min in the binding phase, and in the dissociation phase, the dissociation time was set to 300 or 360 seconds, and the flow rate was set to 30 or 50 μl/min. The fitting was carried out using a 1:1 combined model, and BIACore Evaluation Software (GE healthcare) was used as the evaluation software.
# mouse TCTP = target: T2, mouse TCTP; assay: ELISA on mouse TCTP, binder titrated as scFv (axis [scFv] Log(nM)), OD450 [panel Mouse TCTP]
# [3] = target: T1, Human TCTP (translationally controlled …); assay: ELISA on human TCTP, binder titrated as scFv (axis [scFv] Log(nM)), OD450 [panel Human TCTP]
# [4] = target: T1, Human TCTP (translationally controlled …); assay: competition ELISA: human TCTP coated at 1 µg/ml, 150 nM TLR2 plus titrated antibody, bound TLR2 detected; % inhibition of TLR2-TCTP binding
binder,measurement,setting,value
B1,binding result,[1],binds
B2,binding result,[1],binds
B3,EC50 (read off the curve),[1],~10 ng/mL
B4,Kd,[2],1.23 nM
B5,binding result,[1],binds
B6,binding result,[1],binds
B7,Kd,[2],2.77 nM
B8,binding result,mouse TCTP,binds
same,EC50 (read off the curve),[3],~8 nM
B9,binding result,mouse TCTP,binds
same,binding result,[3],binds
B10,EC50 (read off the curve),mouse TCTP,~9 nM
same,EC50 (read off the curve),[3],~1 nM
B11,binding result,mouse TCTP,binds
same,binding result,[3],binds
B12,binding result,mouse TCTP,binds
same,EC50 (read off the curve),[3],~20 nM
B13,binding result,mouse TCTP,binds
same,binding result,[3],binds
B14,binding result,mouse TCTP,binds
same,binding result,[3],binds
B15,binding result,mouse TCTP,binds
same,binding result,[3],binds
B16,binding result,mouse TCTP,binds
same,binding result,[3],binds
B17,EC50 (read off the curve),mouse TCTP,~5 nM
same,IC50 (read off the curve),[4],~20 nM
B18,binding result,[1],binds
B19,binding result,[1],binds
B20,Kd,[2],72.8 nM
B21,Kd,[2],107 nM
